Measurements as given in patent US6410329.

What was measured:
Assay in all cases: cell_activity
[1] = system: VirD1 (Agrobacterium tumefaciens); details: VirD1 alone
[2] = biological target: T1, VirD1-VirD2 translational fusion (p35SD1D2) (Agrobacterium tumefaciens) (UniProt P06668)
T1 sequence: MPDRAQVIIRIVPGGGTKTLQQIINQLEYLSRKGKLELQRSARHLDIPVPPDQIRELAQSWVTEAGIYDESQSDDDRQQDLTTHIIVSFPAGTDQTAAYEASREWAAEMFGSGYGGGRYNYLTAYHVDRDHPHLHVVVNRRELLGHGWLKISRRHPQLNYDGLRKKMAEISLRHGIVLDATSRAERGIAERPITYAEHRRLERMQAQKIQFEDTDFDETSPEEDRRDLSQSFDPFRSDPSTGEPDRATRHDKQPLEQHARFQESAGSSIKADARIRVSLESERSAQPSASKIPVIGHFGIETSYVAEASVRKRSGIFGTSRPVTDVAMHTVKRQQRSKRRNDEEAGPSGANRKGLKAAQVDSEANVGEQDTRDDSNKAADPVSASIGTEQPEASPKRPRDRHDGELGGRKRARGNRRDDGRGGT

[3] = biological target: T2, VirD2-VirD1 translational fusion (p35SD2D1) (Agrobacterium tumefaciens) (UniProt P06668)
T2 sequence: T1 sequence

[4] = maize, pwBarRBLuc geminivirus vector

Sequence “ATCCGGCAGGATATATACCGTTGTAATTCTGCA (double strand) [T-DNA right border reversed, pRB(-)Luc]” has an activity (% of control luciferase) ([1]; tobacco) of 95.

For “ATCCGGCAGGATATATACCGTTGTAATTCTGCA (double strand) [right border in WDV replicon pwi35SRBLuc]”, the activity (Luc/GUS ratio) ([1]; maize, target alone 15.0) was 8.1, the activity (% of control luciferase) [2, 4] was 6 and the activity (% of control luciferase) [3, 4] was 3.6.

Sequence “ATCCGGCAGGATATATACCGTTGTAATTCTGCA (double strand) [T-DNA right border duplex, pRB(+)Luc]” has an activity (% of control luciferase) ([1]; maize) of 105, an activity (% of control luciferase) ([1]; tobacco) of 72 and an activity (% of control luciferase) ([2]; maize, 1 ug + 4 ug) of 2.4. It also gave an activity (% of control luciferase) ([2]; tobacco, 0.5 ug + 2 ug) of 5.4, an activity (% of control luciferase) ([3]; maize, 1 ug + 4 ug) of 2.6 and an activity (% of control luciferase) ([3]; tobacco, 0.5 ug + 2 ug) of 5.
